Reference: paper PMC7069958, “Multi-level and lineage-specific interactomes of the Hox transcription factor Ubx contribute to its functional specificity”

T1: V5-Tin (UniProt P22711)
T1 sequence: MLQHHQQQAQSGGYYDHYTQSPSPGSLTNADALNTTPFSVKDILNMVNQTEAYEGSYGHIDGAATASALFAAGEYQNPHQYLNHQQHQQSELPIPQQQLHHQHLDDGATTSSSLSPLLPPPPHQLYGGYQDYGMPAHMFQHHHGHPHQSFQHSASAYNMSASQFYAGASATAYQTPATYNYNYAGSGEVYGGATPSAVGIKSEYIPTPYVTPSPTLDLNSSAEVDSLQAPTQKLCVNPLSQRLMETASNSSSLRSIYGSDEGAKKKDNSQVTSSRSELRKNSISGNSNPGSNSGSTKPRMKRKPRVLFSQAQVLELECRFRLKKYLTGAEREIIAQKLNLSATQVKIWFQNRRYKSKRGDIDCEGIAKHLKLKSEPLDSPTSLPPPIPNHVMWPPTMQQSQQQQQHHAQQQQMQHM


How the values were obtained:
V5-Tin = target: T1, V5-Tin; assay: EMSA; conditions: 20 mM HEPES pH 7.9, 1.4 mM MgCl2, 1 mM ZnSO4, 40 mM KCl, 0.1 mM EDTA, 5% glycerol, 0.2 ug poly(dI-dC), 0.1 ug BSA, 10 mM DTT, 0.1% NP40, 30 ul, 20 min; gel 6% …
[1] = target: GST-Ubx^FL (full length) (Drosophila) (UniProt P83949); assay: pull-down; GST or GST-Ubx fusion proteins in equal amounts with His-purified proteins; affinity buffer (20 mM HEPES, 10 uM ZnCl2, 0.1% Triton, 2 mM EDTA) with NaCl, 1 mM DTT, 0.1 mM PMSF; 2 h at 4 °C; western blot
Sequence of GST-Ubx^FL (full length) (Drosophila) (P83949 whole entry, the tested form may be a part): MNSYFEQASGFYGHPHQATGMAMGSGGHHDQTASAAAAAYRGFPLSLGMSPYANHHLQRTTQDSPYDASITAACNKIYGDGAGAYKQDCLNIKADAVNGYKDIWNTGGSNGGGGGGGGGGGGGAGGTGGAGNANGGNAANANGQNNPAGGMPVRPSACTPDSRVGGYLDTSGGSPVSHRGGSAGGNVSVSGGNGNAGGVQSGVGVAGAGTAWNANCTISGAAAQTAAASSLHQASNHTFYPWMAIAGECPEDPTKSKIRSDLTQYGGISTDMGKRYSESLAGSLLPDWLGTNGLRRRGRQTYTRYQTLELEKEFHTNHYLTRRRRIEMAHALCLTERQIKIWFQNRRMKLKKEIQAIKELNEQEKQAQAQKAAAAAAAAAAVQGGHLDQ

fold stronger than the Ubx-Exd interaction (signal in pull-down compared with input) [1] | Molecule | binding (V5-Tin)
– | CAATCGCTGTAAATAAATAGGAGCCGCAGATCAAAGGCCTATCAATTAGCACCCATTTCGATTATGCTGCATGCTGCATATGCAGCACTTGCACTGCCTGCAATTCACACCCAATTAGTAATAAATTTGAATGCGCGCTGCAATTTGCCG (double strand) [dpp674 enhancer fragment F3 (150 bp)] | binds
> 10 fold | V5-Tin, His-purified (natural protein) MLQHHQQQAQSGGYYDHYTQSPSPGSLTNADALNTTPFSVKDILNMVNQTEAYEGSYGHIDGAATASALFAAGEYQNPHQYLNHQQHQQSELPIPQQQLHHQHLDDGATTSSSLSPLLPPPPHQLYGGYQDYGMPAHMFQHHHGHPHQSFQHSASAYNMSASQFYAGASATAYQTPATYNYNYAGSGEVYGGATPSAVGIKSEYIPTPYVTPSPTLDLNSSAEVDSLQAPTQKLCVNPLSQRLMETASNSSSLRSIYGSDEGAKKKDNSQVTSSRSELRKNSISGNSNPGSNSGSTKPRMKRKPRVLFSQAQVLELECRFRLKKYLTGAEREIIAQKLNLSATQVKIWFQNRRYKSKRGDIDCEGIAKHLKLKSEPLDSPTSLPPPIPNHVMWPPTMQQSQQQQQHHAQQQQMQHM | –
